# Results: patent US20070111258A1, “Compositions and methods for modulating the acute phase response” (priority 2005, published 2007)
# B1: CREBH-DN: dominant negative truncated CREBH, only the bZIP domain (amino acids 209-320), expressed from plasmid pFlag-CREBH-DN (protein, UniProt Q68CJ9 209-320, looked up, fragment)
# chain: HCQELVLTEDEKKLLAKEGITLPTQLPLTKYEERVLKKIRRKIRNKQSAQESRKKKKEYIDGLETRMSACTAQNQELQRKVLHLEKQNLSLLEQLKKLQAIVVQSTSKSAQT
# modifications: bZIP domain Flag tag
# notes: dominant negative truncated CREBH, only the bZIP domain (amino acids 209-320), expressed from plasmid pFlag-CREBH-DN
# B2: CREBH-N: nuclear/cleaved form of CREBH (amino acids 1-320) expressed from a vector (protein, UniProt Q68CJ9 1-320, looked up, fragment)
# chain: MNTDLAAGKMASAACSMDPIDSFELLDLLFDRQDGILRHVELGEGWGHVKDQQVLPNPDSDDFLSSILGSGDSLPSSPLWSPEGSDSGISEDLPSDPQDTPPRSGPATSPAGCHPAQPGKGPCLSYHPGNSCSTTTPGPVIQVPEASVTIDLEMWSPGGRICAEKPADPVDLSPRCNLTVKDLLLSGSSGDLQQHHLGASYLLRPGAGHCQELVLTEDEKKLLAKEGITLPTQLPLTKYEERVLKKIRRKIRNKQSAQESRKKKKEYIDGLETRMSACTAQNQELQRKVLHLEKQNLSLLEQLKKLQAIVVQSTSKSAQT
# B3: CREBH-F: flag-tagged full-length CREBH (amino acids 1-455) expressed from a transfected vector (protein, UniProt Q68CJ9 1-461, looked up)
# chain: MNTDLAAGKMASAACSMDPIDSFELLDLLFDRQDGILRHVELGEGWGHVKDQQVLPNPDSDDFLSSILGSGDSLPSSPLWSPEGSDSGISEDLPSDPQDTPPRSGPATSPAGCHPAQPGKGPCLSYHPGNSCSTTTPGPVIQVPEASVTIDLEMWSPGGRICAEKPADPVDLSPRCNLTVKDLLLSGSSGDLQQHHLGASYLLRPGAGHCQELVLTEDEKKLLAKEGITLPTQLPLTKYEERVLKKIRRKIRNKQSAQESRKKKKEYIDGLETRMSACTAQNQELQRKVLHLEKQNLSLLEQLKKLQAIVVQSTSKSAQTGTCVAVLLLSFALIILPSISPFGPNKTESPGDFAPVRVFSRTLHNDAASRVAADAVPGSEAPGPRPEADTTREESPGSPGADWGFQDTANLTNSTEELDNATLVLRNATEGLGQVALLDWVAPGPSTGSGRAGLEAAGDEL
# modifications: full-length Flag tag
# notes: flag-tagged full-length CREBH (amino acids 1-455) expressed from a transfected vector
# Key:
# murine SAP promoter = assay: Murine SAP promoter luciferase reporter in H2.35 cells; format: cell-based
# Protocol: (§1) FIG. 11 depicts the synergistic interaction of CREBH with ATF6 to activate transcription of the major APR genes. (A) Luciferase reporter analysis of trans-activation effects of CREBH on promoters of the murine SAP gene and the human CRP gene in H2.35 cells. H2.35 cells in a 35 mm collagen-coated plate were co-transfected with a control vector or a CREBH expression vector (0.25 μg), the luciferase reporter (0.6 μg) and pcDNA3-LacZ (0.25 μg), and were then cultured in the absence or presence of Tm (5 μg/ml) for 10 hours. (B) CREBH-DN efficiently suppresses CREBH trans-activation on the murine SAP and the human CRP promoters. H2.35 cells were co-transfected with the luciferase reporter construct and a control vector or a vector expressing CREBH-DN, and were then cultured in the absence or presence of Tm (5 μg/ml) for 10 hours. (C) Interaction between ATF6 and CREBH was determined by IP-Western blot analysis. 293T cells were transfected with a control vector or a vector expressing the nuclear/cleaved form of CREBH, and were then cultured in the absence or presence of Tm for 8 hours. Total cell lysates were immunoprecipated by using an anti-human ATF6 polyclonal antibody or an anti-flag antibody and were then subjected to Western blot analysis by using anti-flag antibody or anti-human ATF6 antibody. Expression levels of CREBH in the transfected cells were determined by Western blot analysis of total cell lysates using the anti-flag antibody (lower panel). (D) Luciferase reporter analysis showing trans-activation effects of the nuclear forms of ATF6 or CREBH on the murine SAP and human CRP promoters in H2.35 cells. H2.35 cells in a 35 mm collagen-coated plate were co-transfected with a vector expressing ATF6 p50 or CREBH-N (0.25 μg), the luciferase reporter (0.6 μg) and pcDNA3-LacZ (0.25 μg). (E-F) Luciferase reporter analysis showing synergistic effects of CREBH and ATF6 on transcriptional induction from the murine SAP promoter (E), and the human CRP promoter (F) in H2.35 cells. To detect synergistic effects of CREBH and ATF6 on reporter gene expression, vector DNA (25 ng control vector, 20 ng CREBH- and/or 25 ng ATF6-expression vector) was mixed with 100 ng reporter construct and 150 ng pcDNA3-lacZ for transfection of H2.35 cells in a 35 mm collagen-coated plate.
# Plasmids, pME18S, pME-CREBH Full and pME-CRE1H d™ were kindly provided by Dr. Sumio Sugano (Institute of Medical Science, University of Tokyo, Japan) (Omori et al., 2001). Plasmid pFlag-CREBH Full that expresses a full-length CREBH (amino acids 1-455) was constructed by insertion of a PCR product from pME-CREBH Full into expression vector pFlag-CMV-4 between EcoR I and BamH I. Vector pFlag-CMV-4 is designed for stable, cytoplasmic expression of N-terminal flag fusion proteins in mammalian cells (purchased from Sigma-Aldrich). Plasmid pFlag-CREBH-ΔC that expresses the nuclear form of CREBH (amino acids 1-320) was constructed by insertion of a PCR product from pME-CREBH d™ into pFlag-CMV-4 between EcoR I and BamH I. Plasmid pFlag-CREBH-DN that expresses only the CREBH bZIP domain (amino acids 209-320) was constructed by insertion of a PCR product from pME-CREBH Full into pFlag-CMV-4 between EcoR I and BamH I. The reporter plasmid containing the luciferase gene under control of the human CRP gene, pGL3-CRP, was constructed by insertion of a 637 bp fragment containing 5′-flanking and promoter region of the human CRP gene into luciferase reporter vector pGL3-basic (purchased from Promega, Madison, Wis.) between Sac I and Xho I. The 637 bp 5′-flanking fragment of the human CRP gene was amplified from human genomic DNA by using a forward primer: 5′-[…]-3′; and a reverse primer 5′-[…]-3′. The reporter plasmid containing the luciferase gene under control of the mouse SAP gene, pGL3-SAP, was constructed by insertion of an 863 bp fragment containing 5′-flanking and promoter region of the mouse SAP gene into pGL3-basic between Xho I and Hind III. […]
# human CRP promoter = assay: Human CRP promoter luciferase reporter in H2.35 cells; format: cell-based
# Protocol: (§2) FIG. 10 depicts activation of expression of APR genes in vivo. (A) The nuclear form of CREBH or ATF6 activates expression of the endogenous SAP mRNA in mice. Northern blot analysis of the endogenous SAP mRNA in mice injected with vector expressing the nuclear form of ATF6 (ATF6 p50) or CREBH (CREBH-N). Wild-type C57BL/6J mice at 3 months of age were injected with 80 μg plasmid DNA expressing ATF6 p50, CREBH-N or empty vector DNA through hydrodynamic plasmid DNA tail-vein injection (Miao et al. 2004). Liver samples were collected from mice at 36 hours after injection, and were subjected to Northern blot analysis to detect the murine SAP mRNA levels. Experiments were performed at least 3 times and representative data is shown. (B-C) Nuclear forms of CREBH and ATF6 act synergistically to induce transcription from the human CRP promoter and the UPRE motif. To detect synergistic effects of CREBH and ATF6 on expression of the reporter, vector DNA (15 ng control vector, 10 ng CREBH- and/or 15 ng AFT6-expression vector) was mixed with 100 ng reporter construct and 150 ng pcDNA3-lacZ for transfection of H2.35 cells in one well of a 6-well plate. The amount of luciferase activity was normalized to the amount of β-galactosidase activity.
# as §1, with “To detect synergistic effects of CREBH and ATF6 on reporter gene expression, vector DNA (25 ng control vector, 20 ng CREBH- and/or 25 ng ATF6-expression vector) was mixed with 100 ng reporter construct and 150 ng pcDNA3-lacZ for transfection of H2.35 cells in a 35 mm collagen-coated plate.” left out
# UPRE motif [1] = assay: UPRE luciferase reporter in H2.35 cells; format: cell-based
# Protocol: as §2, with “The amount of luciferase activity was normalized to the amount of β-galactosidase activity.” left out
# At 36 h post transfection, transfected cells were lysed and assayed for luciferase and β-galactosidase activity by using a Tropix Luciferase/β-Galactosidase Dual Light. […] Photons were detected in an Optima II Luminator (MGM Instruments). […]
# murine SAP mRNA = assay: Endogenous SAP mRNA in liver after hydrodynamic plasmid DNA tail-vein injection (Northern blot); format: in vivo, mouse; settings: wild-type mice; 80 μg plasmid DNA tail vein injection; 36 hours
# Protocol: as §2
# UPRE motif [2] = assay: UPRE luciferase reporter analysis in COS7 cells; format: cell-based; settings: for activation of luciferase expression from UPRE reporter relative to vector control: absence of Tm
# [3] = H2.35 cells, Tm 5 μg/ml 10 hours, endogenous CREBH
# [4] = co-expression with ATF6 p50, absence or presence of ER stress
# [5] = co-expression with full-length or cleaved CREBH, absence or presence of ER stress
Molecule,luciferase expression from the murine SAP promoter in response to ER stress (murine SAP promoter; [3]),ATF6-mediated trans-activation on the SAP reporter (murine SAP promoter; [4]),"CREBH-induced reporter gene expression, SAP reporter (murine SAP promoter; [5])",luciferase expression from the human CRP promoter in response to ER stress (human CRP promoter; [3]),ATF6-mediated trans-activation on the CRP reporter (human CRP promoter; [4]),"CREBH-induced reporter gene expression, CRP reporter (human CRP promoter; [5])",ATF6-mediated trans-activation on the UPRE reporter (UPRE motif [1]; co-expression with ATF6 p50),"CREBH-induced reporter gene expression, UPRE reporter (UPRE motif [1]; co-expression with cleaved CREBH)","expression of luciferase from the SAP reporter relative to vector control (murine SAP promoter; H2.35 cells, without Tm)",murine SAP mRNA in the liver compared to control vector (murine SAP mRNA),expression of luciferase from the CRP reporter compared to the controls (human CRP promoter; H2.35 cells) [fold],activation of luciferase expression from UPRE reporter relative to vector control (UPRE motif [2]),"expression of luciferase from the SAP reporter relative to vector control (murine SAP promoter; H2.35 cells, Tm 5 μg/ml 10 hours)","expression of luciferase under control of the human CRP promoter (human CRP promoter; H2.35 cells, expression of CREBH)","activation of luciferase expression from UPRE reporter (UPRE motif [2]; after Tm treatment, 10 hours)"
B1,efficiently suppressed luciferase expression,efficiently suppressed ATF6-mediated trans-activation,significantly suppressed the ability for CREBH to induce reporter gene expression,efficiently suppressed luciferase expression,efficiently suppressed ATF6-mediated trans-activation,significantly suppressed the ability for CREBH to induce reporter gene expression,efficiently suppressed ATF6-mediated trans-activation,significantly suppressed the ability for CREBH to induce reporter gene expression,,,,,,,
B2,,,,,,,,,approximately 16 fold,higher levels of the murine SAP mRNA,~11,approximately 18 fold,,,
B3,,,,,,,,,approximately 2.5 fold,,,approximately 2 fold,approximately 14 fold,significantly activated,more than 10 fold
